# Test results taken from US20240398911A1 (BOARD OF THE TRUSTEES OF THE UNIVERSITY OF ILLINOIS, published 2024).
# Where two headings read alike, the source gives them in different places.
# B1: REGN10987 (imdevimab) (antibody, V domains shown)
# VH: QVQLVESGGGVVQPGRSLRLSCAASGFTFSNYAMYWVRQAPGKGLEWVAVISYDGSNKYYADSVKGRFTISRDNSKNTLYLQMNSLRTEDTAVYYCASGSDYGDYLLVYWGQGTLVTVSS
# VL: QSALTQPASVSGSPGQSITISCTGTSSDVGGYNYVSWYQQHPGKAPKLMIYDVSKRPSGVSNRFSGSKSGNTASLTISGLQSEDEADYYCNSLTSISTWVFGGGTKLTVLG
# B2: sACE2.v2 with 8 histidine tag (receptor)
# chain: STIEEQAKYFLDKFNHEAEDLFYQSSLASWNYNTNITEENVQNMNNAGDKWSAFLKEQSTTAQMYPLQEIQNLTVKLQLQALQQNGSSVLSEDKSKRLNTILNTMSTIYSTGKVCNPDNPQECLLLEPGLNEIMANSLDYNERLWAWESWRSEVGKQLRPLYEEYVVLKNEMARANHYEDYGDYWRGDYEVNGVDGYDYSRGQLIEDVEHTFEEIKPLYEHLHAYVRAKLMNAYPSYISPIGCLPAHLLGDMWGRFWTNLYSLTVPFGQKPNIDVTDAMVDQAWDAQRIFKEAEKFFVSVGLPNMTQGFWEYSMLTDPGNVQKAVCHPTAWDLGKGDFRILMCTKVTMDDFLTAHHEMGHIQYDMAYLAQPFLLRNGANEGFHEAVGEIMSLSAATPKHLKSIGLLSPDFQEDNETEINFLLKQALTIVGTLPFTYMLEKWRWMVFKGEIPKDQWMKKWWEMKREIVGVVEPVPHDETYCDPASLFHVSNDYSFIRYYTRTLYQFQFQEALCQAAKHEGPLHKCDISNSTEAGQKLFNMLRLGKSEPWTLALENVVGAKNMNVRPLLNYFEPLFTWLKDQNKNSFVGWSTDWSPYADGSGHHHHHHHH
# B3: dimeric sACE22.v2 fused to the Fc of human IgG1 (Fc fusion)
# chain: STIEEQAKYFLDKFNHEAEDLFYQSSLASWNYNTNITEENVQNMNNAGDKWSAFLKEQSTTAQMYPLQEIQNLTVKLQLQALQQNGSSVLSEDKSKRLNTILNTMSTIYSTGKVCNPDNPQECLLLEPGLNEIMANSLDYNERLWAWESWRSEVGKQLRPLYEEYVVLKNEMARANHYEDYGDYWRGDYEVNGVDGYDYSRGQLIEDVEHTFEEIKPLYEHLHAYVRAKLMNAYPSYISPIGCLPAHLLGDMWGRFWTNLYSLTVPFGQKPNIDVTDAMVDQAWDAQRIFKEAEKFFVSVGLPNMTQGFWEYSMLTDPGNVQKAVCHPTAWDLGKGDFRILMCTKVTMDDFLTAHHEMGHIQYDMAYLAQPFLLRNGANEGFHEAVGEIMSLSAATPKHLKSIGLLSPDFQEDNETEINFLLKQALTIVGTLPFTYMLEKWRWMVFKGEIPKDQWMKKWWEMKREIVGVVEPVPHDETYCDPASLFHVSNDYSFIRYYTRTLYQFQFQEALCQAAKHEGPLHKCDISNSTEAGQKLFNMLRLGKSEPWTLALENVVGAKNMNVRPLLNYFEPLFTWLKDQNKNSFVGWSTDWSPYADQSIKVRISLKSALGDKAYEWNDNEMYLFRSSVAYAMRQYFLKVKNQMILFGEEDVRVANLKPRISFNFFVTAPKNVSDIIPRTEVEKAIRMSRSRINDAFRLNDNSLEFLGIQPTLGGS
# B4: REGN10933 (casirivimab) (antibody, V domains shown)
# VH: QVQLVESGGGLVKPGGSLRLSCAASGFTFSDYYMSWIRQAPGKGLEWVSYITYSGSTIYYADSVKGRFTISRDNAKSSLYLQMNSLRAEDTAVYYCARDRGTTMVPFDYWGQGTLVTVSS
# VL: DIQMTQSPSSLSASVGDRVTITCQASQDITNYLNWYQQKPGKAPKLLIYAASNLETGVPSRFSGSGSGTDFTFTISGLQPEDIATYYCQQYDNLPLTFGGGTKVEIKR
# B5: dimeric sACE22.v2.4 with 8 histidine tag (receptor)
# chain: STIEEQAKYFLDKFNHEAEDLFYQSSLASWNYNTNITEENVQNMNNAGDKWSAFLKEQSTTAQMYPLQEIQNLTVKLQLQALQQNGSSVLSEDKSKRLNTILNTMSTIYSTGKVCNPDNPQECLLLEPGLNEIMANSLDYNERLWAWESWRSEVGKQLRPLYEEYVVLKNEMARANHYEDYGDYWRGDYEVNGVDGYDYSRGQLIEDVEHTFEEIKPLYEHLHAYVRAKLMNAYPSYISPIGCLPAHLLGDMWGRFWTNLYSLTVPFGQKPNIDVTDAMVDQAWDAQRIFKEAEKFFVSVGLPNMTQGFWEYSMLTDPGNVQKAVCHPTAWDLGKGDFRILMCTKVTMDDFLTAHHEMGHIQYDMAYAAQPFLLRNGANEGFHEAVGEIMSLSAATPKHLKSIGLLSPDFQEDNETEINFLLKQALTIVGTLPFTYMLEKWRWMVFKGEIPKDQWMKKWWEMKREIVGVVEPVPHDETYCDPASLFHVSNDYSFIRYYTRTLYQFQFQEALCQAAKHEGPLHKCDISNSTEAGQKLFNMLRLGKSEPWTLALENVVGAKNMNVRPLLNYFEPLFTWLKDQNKNSFVGWSTDWSPYADQSIKVRISLKSALGDKAYEWNDNEMYLFRSSVAYAMRQYFLKVKNQMILFGEEDVRVANLKPRISFNFFVTAPKNVSDIIPRTEVEKAIRMSRSRINDAFRLNDNSLEFLGIQPTLGGSGHHHHHHHH
# Columns and labels:
# [1] = target: S protein of SARS-CoV-1 expressed on Expi293F cells (SARS-CoV-1, UniProt P59594 14-1255); assay: flow cytometry; Expi293F cells expressing S of SARS-CoV-1; normalized units, N=3
# [2] = target: T1, RBD (a.a. 333-529) of SARS-CoV-2 S with 8 histidine tag (SARS-CoV-2, UniProt P0DTC2 333-529)
# [3] = target: full length S of SARS-CoV-2 (untagged, a.a. 1-1273) expressed on Expi293F cells (SARS-CoV-2, UniProt P0DTC2 16-1273)
# [4] = target: T1, RBD (a.a. 333-529) of SARS-CoV-2 S with …; assay: BLI, sACE22-IgG1 immobilized, RBD-8h analyte
# [5] = target: T1, RBD (a.a. 333-529) of SARS-CoV-2 S with …; remark: listed apart in the source
binder,measurement,setting,value
B1,binding result,[1],no binding (tested: 70 nM)
B2,IC50 (read off the curve),[2],~6 nM
same,EC50 (read off the curve),[3],~10 nM
B3,Kd,[4],0.2 nM
same,koff,[4],0.00014 s⁻¹
same,kon,[4],580000 M⁻¹ s⁻¹
B4,binding result,[1],no binding (tested: 70 nM)
B5,IC50 (read off the curve),[5],~4 nM
